Measured values reported in article PMC4918322.

Biological target: PLK1 (UniProt P53350)
Test: anti-V5 co-immunoprecipitation, PLK1 blot
Conditions: reference: wild-type RSF1-C1; sites S1375

binding against the reference: lost
Substance: RSF1 C1, 627-1441 (from UniProt Q96T23) S1375A
